# Laboratory results from publication PMC5940772 (Nature Communications, 2018).
# B1: Human TRIM25 CC-PRYSPRY domain (residues 189-630) (domain or fragment)
# chain: ASLSQASADLEATLRHKLTVMYSQINGASRALDDVRNRQQDVRMTANRKVEQLQQEYTEMKALLDASETTSTRKIKEEEKRVNSKFDTIYQILLKKKSEIQTLKEEIEQSLTKRDEFEFLEKASKLRGISTKPVYIPEVELNHKLIKGIHQSTIDLKNELKQCIGRLQEPTPSSGDPGEHDPASTHKSTRPVKKVSKEEKKSKKPPPVPALPSKLPTFGAPEQLVDLKQAGLEAAAKATSSHPNSTSLKAKVLETFLAKSRPELLEYYIKVILDYNTAHNKVALSECYTVASVAEMPQNYRPHPQRFTYCSQVLGLHCYKKGIHYWEVELQKNNFCGVGICYGSMNRQGPESRLGRNSASWCVEWFNTKISAWHNNVEKTLPSTKATRVGVLLNCDHGFVIFFAVADKVHLMYKFRVDFTEALYPAFWVFSAGATLSICSPK
# notes: also called TRIM25 coiled-coil-PRY-SPRY
# B2: TRIM25-CC (coiled-coil domain of TRIM25, 189-379), tag removed (domain or fragment)
# chain: ASLSQASADLEATLRHKLTVMYSQINGASRALDDVRNRQQDVRMTANRKVEQLQQEYTEMKALLDASETTSTRKIKEEEKRVNSKFDTIYQILLKKKSEIQTLKEEIEQSLTKRDEFEFLEKASKLRGISTKPVYIPEVELNHKLIKGIHQSTIDLKNELKQCIGRLQEPTPSSGDPGEHDPASTHKSTRP
# B3: NS1-ED (effector domain of NS1, 79-230) (domain or fragment)
# chain: MTMASVPASRYLTDMTLEEMSRDWSMLIPKQKVAGPLCIRMDQAIMDKNIILKANFSVIFDRLETLILLRAFTEEGAIVGEISPLPSLPGHTAEDVKNAVGVLIGGLEWNDNTVRVSETLQRFAWRSSNENGRPPLTPKQKREMAGTIRSEV
# How the values were obtained:
# [1] = biological target: the molecule itself; test: SEC + SEC-MALS
# [2] = biological target: the molecule itself; test: crystal structure
# [3] = biological target: His-tagged TRIM25-CC (coiled-coil domain of TRIM25, 189-379) (human, UniProt Q14258 189-379); test: BLI; […] (~12 ug/ml); […]; 25 °C; 50 mM HEPES pH 7.5, 150 mM NaCl, 1 mM DTT, 0.005% Tween-20; […]; settings: both partners purified
binder,measurement,setting,value
B1,stoichiometry N,[1],2
B2,binding result,[2],binds
B3,Kd,[3],16.1 µM
